Experimental data taken from publication PMC11210195.

Tests used:
mAb1 WT-AAA (human) = test: mass photometry; 200 nM mAb1 Fc variant pre-incubated with 4000 nM PRYSPRY domain, analysed at a 1:250 dilution; PBS pH 7.4, room temperature
[1] = target: mAb1 HH (human IgG1, T307H, N434H) (human); test: SPR; Biacore T200, C1 chip, 25 °C, HBS-EP+ (10 mM HEPES, 150 mM NaCl, 3 mM EDTA, 0.05% P20, pH 7.4); antibody Fc variants captured via anti-human Fab-kappa nanobody (about 60 RU), Fc only variants amine-coupled (60-80 RU), cytokine-Fc fusions captured via anti-PGLALA F(ab')2 (35-40 RU); PRYSPRY domain injected in five two-fold dilutions from 500, 1000 or 2000 nM; global fit, Langmuir 1:1, affinity mode
[2] = target: mAb1 YTE-AAA (asymmetrical human IgG1, one Fc heavy chain YTE, the other AAA) (human); test: as above
[3] = target: anti-AAV2 capsid antibody A20 WT (bivalent, human IgG1 Fc WT) (human); test: as above
Ustekinumab (human) = test: as above
[4] = target: mAb1 YTE (human IgG1, M252Y, S254T, T256E) (human); test: as above
[5] = target: mAb2 WT KiH (human IgG1, knob-into-hole, Fc wild type at the TRIM21 site) (human); test: as above
[6] = target: Fc WT (Fc-only variant, human IgG1 core hinge-CH2-CH3, wild type) (human); test: as above
[7] = target: mAb1 WT-AAA (asymmetrical human IgG1, one Fc heavy chain H310A, H433A, Y436A) (human); test: as above
Briakinumab (human) = test: as above
Sequence of Briakinumab (human) (heavy, as listed by the source, chain 1 of 2): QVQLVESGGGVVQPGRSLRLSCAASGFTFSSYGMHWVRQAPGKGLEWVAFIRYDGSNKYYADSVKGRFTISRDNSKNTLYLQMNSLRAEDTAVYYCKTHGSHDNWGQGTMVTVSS
Sequence of Briakinumab (human) (light, as listed by the source, chain 2 of 2): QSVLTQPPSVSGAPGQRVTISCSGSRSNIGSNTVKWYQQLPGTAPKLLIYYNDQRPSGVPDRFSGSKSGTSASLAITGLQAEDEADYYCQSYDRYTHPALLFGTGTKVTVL

Sequence of TRIM21 PRYSPRY domain (P19474 277-475): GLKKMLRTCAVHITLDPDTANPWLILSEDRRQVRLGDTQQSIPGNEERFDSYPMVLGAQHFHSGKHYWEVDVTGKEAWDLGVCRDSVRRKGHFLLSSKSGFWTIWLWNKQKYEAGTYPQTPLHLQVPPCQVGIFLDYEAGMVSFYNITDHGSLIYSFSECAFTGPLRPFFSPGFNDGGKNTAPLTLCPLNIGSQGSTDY
Sequence of Ustekinumab (human) (heavy, as listed by the source, chain 1 of 2): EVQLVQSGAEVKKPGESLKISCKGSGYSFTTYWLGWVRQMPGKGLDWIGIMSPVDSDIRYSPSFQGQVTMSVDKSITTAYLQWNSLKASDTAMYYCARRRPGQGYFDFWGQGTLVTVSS
Sequence of Ustekinumab (human) (light, as listed by the source, chain 2 of 2): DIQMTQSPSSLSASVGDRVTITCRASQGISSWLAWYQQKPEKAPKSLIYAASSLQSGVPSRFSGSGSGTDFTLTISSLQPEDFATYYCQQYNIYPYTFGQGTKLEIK
Sequence of anti-AAV2 capsid antibody A20 WT (bivalent, human IgG1 Fc WT) (human) (heavy, as listed by the source, chain 1 of 2): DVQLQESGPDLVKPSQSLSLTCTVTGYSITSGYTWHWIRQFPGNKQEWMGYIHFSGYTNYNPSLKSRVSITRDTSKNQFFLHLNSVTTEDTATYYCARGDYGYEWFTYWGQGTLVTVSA
Sequence of anti-AAV2 capsid antibody A20 WT (bivalent, human IgG1 Fc WT) (human) (light, as listed by the source, chain 2 of 2): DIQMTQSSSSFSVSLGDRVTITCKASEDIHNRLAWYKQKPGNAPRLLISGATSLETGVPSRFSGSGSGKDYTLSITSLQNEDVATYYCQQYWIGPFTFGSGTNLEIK

stoichiometry N (mAb1 WT-AAA (human)): 1
Kd [1]: 101 nM
koff [1]: 0.477 s⁻¹
kon [1]: 4.74e+06 M⁻¹ s⁻¹
Kd [2]: 92.6 nM
koff [2]: 0.189 s⁻¹
kon [2]: 2.04e+06 M⁻¹ s⁻¹
Kd [3]: 45.6 nM
koff [3]: 0.0876 s⁻¹
kon [3]: 1.92e+06 M⁻¹ s⁻¹
Kd (Ustekinumab (human)): 42.3 nM
koff (Ustekinumab (human)): 0.104 s⁻¹
kon (Ustekinumab (human)): 2.46e+06 M⁻¹ s⁻¹
Kd [4]: 74.8 nM
koff [4]: 0.16 s⁻¹
kon [4]: 2.14e+06 M⁻¹ s⁻¹
Kd [5]: 49.6 nM
koff [5]: 0.118 s⁻¹
kon [5]: 2.38e+06 M⁻¹ s⁻¹
Kd [6]: 65.1 nM
koff [6]: 0.102 s⁻¹
kon [6]: 1.57e+06 M⁻¹ s⁻¹
kon [7]: 2.66e+06 M⁻¹ s⁻¹
Kd (Briakinumab (human)): 52.3 nM
koff (Briakinumab (human)): 0.115 s⁻¹
kon (Briakinumab (human)): 2.2e+06 M⁻¹ s⁻¹
Substance: TRIM21 PRYSPRY domain (from UniProt P19474-1 277-475) (domain or fragment)
